This is an account of results in patent publication US20210101945A1 (University of Washington, published 2021).

Data set [1] deals with the molecule itself. The experiment in a line: oligomeric state of the purified design, and SAXS; antiparallel homodimer. The procedure:
(§1) Samples were purified by gel filtration in 20 mM Tris pH 8.0 at room temperature, 150 mM NaCl and 2% glycerol; fractions preceding the void volume of the column were used as blanks for buffer subtraction. Scattering measurements were performed at the SIBYLS 12.3.1 beamline at the Advanced Light Source. The X-ray wavelength (λ) was 1 Å, and the sample-to-detector distance of the Mar 165 detector was 1.5 m, corresponding to a scattering vector q (q=4πsin θ/λ, where 2θ is the scattering angle) range of 0.01 to 0.3 Å−1. Data sets were collected using exposures of 0.5, 1, and 6 seconds at 12 keV. […] For each sample, data was collected for at least two different concentrations to test for concentration-dependent effects; “high” concentration samples ranged from 3-7 mg/ml and “low” concentration samples ranged from 1-2 mg/ml. […] FoXS was used to compare design models to experimental scattering profiles and calculate quality of fit (X) values. For the design models, extra residues introduced by the expression vector were added to the computational models using Rosetta™ Remodel so that the design sequence matched that of the experimental sample. To capture the conformational flexibility of these extra tag residues in solution, 100 independent models were generated per design. These 100 models were then clustered by Rosetta™, and to avoid bias, the cluster center of the largest cluster was selected as the single representative model used for fitting to experimental data.

Data set [2] deals with the molecule itself. Briefly: SAXS against the homotetramer design model. The method, then: as §1
Data set [3] deals with the molecule itself. Briefly: X-ray crystal structure; homodimer. An excerpt:
(§2) The optimum conditions for crystallization of the different designs were found as follows: 2L6HC3_6, 0.2 M Sodium Fluoride, 0.1 M MES pH 5.5 and 20% PEG 400; 2L6HC3_12, 2.2 M Sodium Malonate pH 5.0; 2L6HC3_13, 0.06 M Citric acid, 0.04 M BIS-TRIS propane pH 4.1 and 16% PEG 3,350; 2L8HC4_12, 0.2 M Sodium Acetate trihydrate, 0.1 M Tris hydrochloride pH 8.5 and 30% PEG 4,000; 3L6HC2_2, 0.1 M Sodium Acetate trihydrate pH 4.5 and 3.0 M Sodium chloride; 2L4HC2_23, 0.2 M Lithium chloride and 20% PEG 3,350; 2L4HC2_9, 0.1 M Sodium citrate tribasic dehydrate […]; 2L4HC2_11, 0.1 M Tris pH 8.5 and 2.0 M Ammonium sulfate; 5L6HC3_1, 0.1 M acid pH 3.5 and 3.0 M Sodium chloride; and 2L4HC2_24 was concentrated to 20 mg/ml and crystallized in 0.1 M Citric acid pH 3.5, 2.0 M Ammonium sulfate. […]
(§3) The crystals of the designed proteins were placed in a reservoir solution containing 15 to 20% (v/v) glycerol, and then flash-cooled in liquid nitrogen. […] All the design structures were determined by the molecular-replacement method with the program PHASER within the Phenix suite using the design models as the initial search model. […] Root-mean-square deviation differences from ideal geometries for bond lengths, angles and dihedrals were calculated with Phenix. The overall stereochemical quality of all final models was assessed using the program MOLPROBITY.

Data set [4] deals with the molecule itself. Briefly: SAXS, design model fit to the scattering data with FoXS. The method, then:
(§4) Samples were purified by gel filtration in 20 mM Tris pH 8.0 at room temperature, 150 mM NaCl and 2% glycerol; fractions preceding the void volume of the column were used as blanks for buffer subtraction. Scattering measurements were performed at the SIBYLS 12.3.1 beamline at the Advanced Light Source. The X-ray wavelength (λ) was 1 Å, and the sample-to-detector distance of the Mar 165 detector was 1.5 m, corresponding to a scattering vector q (q=4πsin θ/λ, where 2θ is the scattering angle) range of 0.01 to 0.3 Å−1. Data sets were collected using exposures of 0.5, 1, and 6 seconds at 12 keV. […] For each sample, data was collected for at least two different concentrations to test for concentration-dependent effects; “high” concentration samples ranged from 3-7 mg/ml and “low” concentration samples ranged from 1-2 mg/ml. […] FoXS was used to compare design models to experimental scattering profiles and calculate quality of fit (X) values. For the design models, extra residues introduced by the expression vector were added to the computational models using Rosetta™ Remodel so that the design sequence matched that of the experimental sample. To capture the conformational flexibility of these extra tag residues in solution, 100 independent models were generated per design. […]

Data set [5] concerns the molecule itself. Briefly: X-ray crystal structure; homotrimer.
Source text: as §2, §3

Data set [6] deals with the molecule itself. The experiment in a line: oligomeric state and CD of the synthetic peptide in PBS; self-association.
Data set [7] concerns the molecule itself. The experiment in a line: X-ray crystal structure superimposed on the design model; homodimer.
Source text: as §2, §3

Data set [8] deals with the molecule itself. The experiment in a line: X-ray crystal structure (3.8 Å) and SAXS; homotetramer. The method, then:
The crystals of the designed proteins were placed in a reservoir solution containing 15 to 20% (v/v) glycerol, and then flash-cooled in liquid nitrogen. The X-ray data sets were collected at the Berkeley Center for Structural Biology beamlines 5.0.1, 8.2.1 and 8.2.2 of the Advanced Light Source at Lawrence Berkeley National Laboratory (LBNL). Data sets were indexed and scaled using HKL2000. All the design structures were determined by the molecular-replacement method with the program PHASER within the Phenix suite using the design models as the initial search model. The atomic positions obtained from molecular replacement and the resulting electron density maps were used to build the design structures and initiate crystallographic refinement and model rebuilding. Structure refinement was performed using the phenix.refine program. Manual rebuilding using COOT and the addition of water molecules allowed construction of the final models. Root-mean-square deviation differences from ideal geometries for bond lengths, angles and dihedrals were calculated with Phenix. The overall stereochemical quality of all final models was assessed using the program MOLPROBITY.
Samples were purified by gel filtration in 20 mM Tris pH 8.0 at room temperature, 150 mM NaCl and 2% glycerol; fractions preceding the void volume of the column were used as blanks for buffer subtraction. […]

Data set [9] deals with the molecule itself. The experiment in a line: SAXS against the parallel homodimer design model. The method, then: as §4
Data set [10] deals with the molecule itself. Briefly: X-ray crystal structure superimposed on the design model; homotrimer.
Source text: as §2, §3

Data set [11] deals with the molecule itself. The experiment in a line: characterisation of the purified design (method not given); self-association.

B1: 2L6Hanti_4 (designed binder)
chain: SRRLELAARINKAAAENARSAIEIQELAARLADELSSSKKVIDFARATTEVLRMSVKLLKLSLEMLEEAARQDGRSEEVRYLAEESKKILEEARKALEDADRLTKRIEEEGS
notes: Monomer subunit of a designed left-handed antiparallel homodimer; entries pair it with itself
With B1, the binding result in [1] was “binds”.

B2: 5L8HC4_6 (designed binder)
chain: GSKDTEDSRKIWEDIRRLLEEARKNSEEIWKEITKNPDTSEIARLLSEQLLEIAEMLVRIAELLSRQTEQR
notes: Monomer subunit of a designed untwisted C4 homotetramer; entries pair it with itself
In the case of B2, the binding result in data set [2] is “binds”.

B3: 2L6Hanti_2 (designed binder)
chain: SEELRKAAENNELAVRLAEAALRMARSALHLFEENPSDEMLKFLELAMEVAKMAAELLKASLKMLKKAAEERGSDESVKYLADKSRDIMRQITEELKKLEEEAKRAQKRGS
notes: as for B1
For B3, in [1], the binding result was “binds”.

B4: 2L4HC2_11 (designed binder)
chain: GSEDYKLREAQRELDKQRKDTEEIRKRLKEIQRLTDERTSTADELIKELREIIRRLQEQSEKLREIIEELEKIIRKR
notes: Monomer subunit of a designed left-handed C2 homodimer; entries pair it with itself
On to B4, for which the binding result in data set [3] is “binds”.

B5: 2L6Hanti_3 (designed binder)
chain: SEKARIAVENLEAALRLNRAAAEMQKSAIKIMDDNRSDEKALRYLRLTTKVLRMSVELLRASLELAEKALREEGSDDSAEKVRKEAEEILKESTEILKEADKETKRADEEGS
notes: as for B1
As for B5, in data set [1], the binding result is “binds”.

B6: 5L4HC2_12 (designed binder)
chain: GTETKKLVEEVERALRELLKTSEDLVRKVEKALRELLELIRRGGTKDKIEEKIRRVLEEIKRELERQKRKIEDVLRQIKEELYRS
notes: Monomer subunit of a designed untwisted C2 homodimer; entries pair it with itself
With B6, the binding result in data set [4] was “binds”.

B7: 2L6HC3_12 (designed binder)
chain: GTKYELRRALEELEKALQELREMLRKLKESLEELKKNPSEDALVRNNELIVEVLRVIVEVLSIIARVLEINARSD
notes: Monomer subunit of a designed left-handed C3 homotrimer; entries pair it with itself
Take B7: in data set [5], the binding result is listed as “binds”.

B8: 5L8HC4_2 (designed binder)
chain: SEQLKEIARILIKLIESLTRFILEVARILIELIEETQRLIVASTDSDESELERIARESKKKAKKALDELKKIVDDQRREAKKAIEELEYDGS
notes: as for B2
As for B8, the binding result in data set [2] was “binds”.

B9: 2L6HC3_13_inner (peptide)
peptide: Ac-TERENNYRNEENNRKIEEEIREIKKEIKKNKERD-NH2
notes: Synthetic inner-ring-only peptide; reported as unfolded and monomeric in isolation; also called inner ring peptide of 2L6HC3_13
For the protein B9, the binding result in data set [6] is listed as “no binding”.

B10: 2L4HC2_23 (designed binder)
chain: GTRTEIIRELERSLREQEELAKRLKELLRELERLQREGSSDEDVRELLREIKELVEEIEKLAREQKYLVEELKRQD
notes: as for B4
As to B10, the binding result in [7] is reported as “binds”.

B11: 2L8HC4_12 (designed binder)
chain: GTAIEANSRMLKALIEIAKAIWKALWANSLLLEATSRGDTERMRQWAEEAREIYKEAKKIIDEADEIVKEAKERHD
notes: Monomer subunit of a designed left-handed C4 homotetramer; entries pair it with itself; also called lefthanded tetramer
On to B11, for which the binding result in data set [8] is “binds”.

B12: 2L6Hanti_5 (designed binder)
chain: TDVLRIAAENLKAAVELAKAALEMAKSAIEIAKTLTEDDEALKFARAAAEVLRMAAKLLKLSIELARKAAEEEGSDDEVRYILDEARKQADELREALKKVDEIMKELDKRGS
notes: as for B1
Turning to B12, the binding result in data set [1] is “binds”.

B13: 2L4HC2_24 (designed binder)
chain: GTDTDELLRLAKEQAELLKEIKKLVEEIARLVKEIQEDPSDELLKTLAELVRKLKELVEDMERSMKEQLYIIKKQKS
notes: as for B4
For the protein B13, in data set [3], the binding result was “binds”.

B14: 3L6HC2_7 (designed binder)
chain: SILELAHESNRRALEMASRANREAMKAAREMIRAASEAARRAGSSNDKDSLRMIEEALRLALRMIEETNKKAVRMVLENNRKMVEAEKKKLSEEEIKRIAKETEDRMREIARRASEEARRLAEEIKREADYRSGS
notes: Monomer subunit of a designed parallel right-handed six-helix C2 homodimer; entries pair it with itself
For the protein B14, the binding result in data set [9] is recorded as “binds”.

B15: 2L6Hanti_1 (designed binder)
chain: SDYLRLATEHNKLAVEANRLAIELAKSAVELAETDPSKTALEHAELAARLLEMMVQFTKAAQELTREAIRKEGRNEESEKVLRKSKEAYKESEKALEDARRLLDELRKKGS
notes: Monomer subunit (three helices) of a designed left-handed antiparallel homodimer; entries pair it with itself
In the case of B15, the binding result in data set [1] is on record as “binds”.

B16: 2L6HC3_6 (designed binder)
chain: GTKYKIKETLKRLEDSLRELRRILEELKEMLERLEKNPDKDVIVEVLKVIVKAIEASVENQRISAENQKALAESD
notes: Monomer subunit of a designed left-handed C3 homotrimer; entries pair it with itself; also called XXBB
Take B16: the binding result in data set [10] was “binds”.

B17: 5L8HC4_1 (designed binder)
chain: GSKVEELLRKSEEAAERAKRELERLLEESERIVAEAQALAEKYESQKVWVRILIELIRATNRMLAEIARILLEMIEVTNRMIAESTK
notes: as for B2
B17: the binding result in [2] was “binds”.

B18: 2L6HC3_13 (designed binder)
chain: GTKYELRRALEELEKALRELKKSLDELERSLEELEKNPSEDALVENNRLNVENNKIIVEVLRIIAEVLKINAKSD
notes: Monomer subunit of a designed left-handed C3 homotrimer; entries pair it with itself; also called AAXX
For B18, the binding result in data set [10] is on record as “binds”.

B19: 2L4HC2_9 (designed binder)
chain: GTSDYIIEQIQRDQEEARKKVEEAEERLERVKEASKRGVSSDQLLDLIRELAEIIEELIRIIRRSNEAIKELIKNQS
notes: Monomer subunit (helical hairpin) of a designed left-handed C2 homodimer; entries pair it with itself; Expressed in E. coli with a His tag (C-terminal, or N-terminal and thrombin-cleavable); Underlined residues are said to be optional, but the underlining is not visible
Consider B19, for which, in data set [11], the binding result was “binds”.

B20: 5L6HC3_1 (designed binder)
chain: SEELRAVADLQRLNIELARKLLEAVARLQELNIDLVRKTSELTDEKTIREEIRKVKEESKRIVEEAEEEIRRAKEESRYIADESRGS
notes: Monomer subunit of a designed untwisted C3 homotrimer; entries pair it with itself; also called untwisted trimer
Take B20: the binding result in [5] is reported as “binds”.

B21: 3L6HC2_4 (designed binder)
chain: SALEKIAKLIIEAARLSAELARRAARASAEMARKAIEAVSEERGSESLLKIVADLIVESQEAVVRLIIESQQIAAKLAEDLIRAAKEAASDESKMEEVAKEVQERAERAARDIERKLKRVLEELDYKLKESRDGS
notes: as for B14
Take B21: the binding result in [9] is recorded as “binds”.
